Data as given in PMC7864079, “Molecular basis for histone H3 “K4me3-K9me3/2” methylation pattern readout by Spindlin1” (The Journal of Biological Chemistry, 2021).

Molecular target: T1, Spindlin1_50–262 (Homo sapiens, UniProt Q9Y657)
T1 construct: The Spindlin1_50–262 samples were dialyzed against the buffer; GST (N, cleaved yes); made in house; host or cells: Escherichia coli BL21 (DE3)
Assay: Thermal shift assay (TSA), Spindlin1_50–262 mixed with histone H3 peptides
Assay type: binding
Conditions: the row's label is the comparator peptide
Method: Recombinant proteins were overexpressed in Escherichia coli BL21 (DE3) strain. […] After cell lysis and centrifugation, the supernatant was loaded onto a GST affinity column and washed with lysis buffer. Then the bound proteins were subjected to on-column cleavage by PreScission Protease overnight. […] Purified peak fractions were concentrated to 25 mg/ml in 150 mM NaCl, 20 mM Tris, pH 8.0, aliquoted, and stored at −80°C for future use. The TSA was performed with a CFX96 real-time PCR instrument (Bio-Rad). […] All solutions were prepared in 25 µl of the same buffer (20 mM Hepes Na, pH 7.5, 150 mM NaCl) and incubated at 4°C for 1 h. During TSA assays, samples were heated from 25°C to 90°C at a rate of 0.5°C per minute. Protein denaturation progress was monitored by increased fluorescence signal of Sypro Orange, which captures the exposure of the protein hydrophobic core during thermal unfolding. Changes in the fluorescence signal were recorded and analyzed by the software CFX-Manager (Bio-Rad). When 50% of the protein is denatured, the folding and unfolding states of the protein are in dynamic equilibrium, and the corresponding temperature is the protein's melting temperature.

T1 sequence (Q9Y657 50-262): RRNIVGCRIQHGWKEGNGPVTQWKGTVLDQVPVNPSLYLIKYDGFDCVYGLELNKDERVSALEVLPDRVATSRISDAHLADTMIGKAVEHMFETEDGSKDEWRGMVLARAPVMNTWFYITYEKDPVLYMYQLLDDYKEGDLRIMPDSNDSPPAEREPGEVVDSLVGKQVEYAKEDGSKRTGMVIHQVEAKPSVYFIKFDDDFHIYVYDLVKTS

Row | amount by which the Tm with H3_1–20 “K4me3-K9me3” ([…]) is greater than the Tm with this peptide | Substance
1 | 15.0 °C | unmodified H3_1–20: unmodified synthetic histone H3 residues 1–20 peptide
2 | 12.0 °C | H3_1–20 K9me3: synthetic histone H3 residues 1–20 peptide with K9me3
